Measurements taken from publication PMC5473643, “A semisynthetic Atg3 reveals that acetylation promotes Atg3 membrane binding and Atg8 lipidation” (Nature Communications, 2017).
Where a chain is given by its changes, count along the chain named.

Key:
Conditions in all cases: both partners purified
[1] = biological target: T1, semi-synthetic Atg3 K19ac-K48ac (Saccharomyces cerevisiae, UniProt P40344 1-310, Gln27 mutated to Cys27 | S54C, acetyl-lysine at K19 and K48); test: SPR; Biacore T200, 25 °C; Atg3 immobilised by amine coupling on CM5 chip (400 RU); Atg8 injected at 30 μl/min up to 3,200 nM; 10 mM phosphate buffer, 2.7 mM KCl, 137 mM NaCl, 0.05% surfactant P20, pH 7.4
T1 construct: Atg3 of yeast Saccharomyces cerevisiae, Atg3(1-310), 310 amino acids, with Gln27 and Ser54 mutated to Cys for ligation; also called K19/K48-diacetylated Atg3; 2ac
T1 sequence (looked up): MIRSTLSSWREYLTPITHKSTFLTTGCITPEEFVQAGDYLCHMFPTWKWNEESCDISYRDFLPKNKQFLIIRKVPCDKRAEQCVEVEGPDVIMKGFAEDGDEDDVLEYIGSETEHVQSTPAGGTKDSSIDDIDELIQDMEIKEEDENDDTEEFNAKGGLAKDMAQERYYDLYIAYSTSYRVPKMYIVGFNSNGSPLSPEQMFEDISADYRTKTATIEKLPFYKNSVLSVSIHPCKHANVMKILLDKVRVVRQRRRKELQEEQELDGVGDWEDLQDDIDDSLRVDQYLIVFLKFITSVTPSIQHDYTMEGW

[2] = biological target: T2, WT Atg3 (bacterially expressed and purified) (Saccharomyces cerevisiae, UniProt P40344 1-310); test: as above
T2 construct: Atg3, E2-like enzyme of yeast Saccharomyces cerevisiae (310 amino acids); 'the region coding WT Atg3' inserted into pGEX-6P-1; GST excised with PreScission protease; residues of the vector may remain at the N-terminus (surmised); also called Atg3 WT; E. coli expressed WT Atg3; source: E. coli BL21 (DE3), purified (glutathione-Sepharose 4B, PreScission protease, Mono Q, Superdex 200)
T2 sequence (looked up): T1 sequence (looked up) with C27Q, C54S

[3] = biological target: T1, semi-synthetic Atg3 K19ac-K48ac; test: MST; Monolith NT.115 (20% LED, 20% MST power); Atg8 labelled with Dye NT-647 NHS, Atg3 at different concentrations; 50 mM Tris-HCl pH 7.4, 150 mM NaCl, 10 mM MgCl2, 0.05% Tween-20; apparent KD, mean of three independent experiments
[4] = biological target: T2, WT Atg3 (bacterially expressed and …); test: as above

B1: Atg8 (bacterially expressed and purified) (natural protein, yeast, UniProt P38182 1-117, looked up)
chain: MKSTFKSEYPFEKRKAESERIADRFKNRIPVICEKAEKSDIPEIDKRKYLVPADLTVGQFVYVIRKRIMLPPEKAIFIFVNDTLPPTAALMSAIYQEHKDKDGFLYVTYSGENTFGR
notes: Atg8 of yeast; 'the region coding ; Atg8' inserted into pGEX-6P-1; In the MST experiment this Atg8 was labelled on primary amines with Dye NT-647 NHS; also called recombinant Atg8; purified Atg8; source: E. coli BL21 (DE3), purified (glutathione-Sepharose 4B, PreScission protease, Mono Q, Superdex 200)
Kd [1]: 650 ± 70 nM
Kd [2]: 730 ± 50 nM
Kd [3]: 490 ± 80 nM
Kd [4]: 520 ± 70 nM
